Experiments:
human CD123 [1] = target: T1, human CD123 (human, UniProt P26951 19-378); test: competition with 5 nM AlexaFluor-488 m7G3, flow cytometry on Molm-13 AML cells
T1 construct: whole, on cells; also called IL-3R alpha; IL3R-alpha
Experimental: Cells were centrifuged, washed 3 times with PBS, and resuspended in 125 μL of a PBS+1% BSA solution. Fluorescence was analyzed using a flow cytometer, and the percent of saturated fluorescent signal was used to determine percent labeled 7G3 mAb bound. The EC50 was extrapolated by fitting the data to a sigmoidal dose-response curve with variable slope.

cynomolgus CD123 = target: T2, cynomolgus CD123 (cynomolgus); test: saturation binding of AlexaFluor-488 labeled mAb, flow cytometry on HEK293F cells expressing cyno CD123; apparent Kd
T2 construct: whole, on cells; Expressed on transfected HEK-293F cells; also called cyno CD123
Experimental: (§1) One hundred thousand CD123-positive cells (HEK-293F cells transfected to express human or cynomologus CD123) were transferred to 96-well plates. […] Cells were pelleted by centrifugation, washed 3 times with a PBS+1% BSA solution, and resuspended in 125 μL of PBS+1% BSA. Fluorescence was analyzed using a flow cytometer, and the percent of saturated fluorescent signal was used to determine percent bound and to subsequently calculate apparent Kd.

human CD123 [2] = target: T1, human CD123; test: saturation binding of AlexaFluor-488 labeled mAb, flow cytometry on HEK293F cells expressing human CD123; apparent Kd
Experimental: as §1

human CD123 [3] = target: T1, human CD123; test: cell-based or functional assay
human CD123 [4] = target: T1, human CD123; test: cell-based or functional assay; remark: listed apart in the source
human CD123 [5] = target: T1, human CD123; test: cell-based or functional assay; remark: listed apart in the source

T1 sequence (P26951 19-378): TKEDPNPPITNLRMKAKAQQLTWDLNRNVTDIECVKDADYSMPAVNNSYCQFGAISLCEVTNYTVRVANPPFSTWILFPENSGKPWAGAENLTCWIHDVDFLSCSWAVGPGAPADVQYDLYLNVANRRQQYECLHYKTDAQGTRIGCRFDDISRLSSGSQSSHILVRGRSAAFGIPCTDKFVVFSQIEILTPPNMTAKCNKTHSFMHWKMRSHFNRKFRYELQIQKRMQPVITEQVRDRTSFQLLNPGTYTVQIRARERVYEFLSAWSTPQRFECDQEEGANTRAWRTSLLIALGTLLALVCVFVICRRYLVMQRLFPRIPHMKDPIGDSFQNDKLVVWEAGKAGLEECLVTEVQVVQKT

B1: murine 7G3 antibody (antibody, V domains shown)
VH: EVQLQQSGPELVKPGASVKMSCKASGYTFTDYYMKWVKQSHGKSLEWIGDIIPSNGATFYNQKFKGKATLTVDRSSSTAYMHLNSLTSEDSAVYYCTRSHLLRASWFAYWGQGTLVTVSA
VL: DFVMTQSPSSLTVTAGEKVTMSCKSSQSLLNSGNQKNYLTWYLQKPGQPPKLLIYWASTRESGVPDRFTGSGSGTDFTLTISSVQAEDLAVYYCQNDYSYPYTFGGGTKLEIKR
notes: Murine monoclonal antibody; also called m7G3
EC50 (human CD123 [1]): 4.3 nM
Kd (cynomolgus CD123): 4.6 nM
Kd (human CD123 [2]): 2.7 nM

B2: Chimeric 7G3 (antibody, V domains shown)
VH: EVQLQQSGPELVKPGASVKMSCKASGYTFTDYYMKWVKQSHGKSLEWIGDIIPSNGATFYNQKFKGKATLTVDRSSSTAYMHLNSLTSEDSAVYYCTRSHLLRASWFAYWGQGTLVTVSA
VL: DFVMTQSPSSLTVTAGEKVTMSCKSSQSLLNSGNQKNYLTWYLQKPGQPPKLLIYWASTRESGVPDRFTGSGSGTDFTLTISSVQAEDLAVYYCQNDYSYPYTFGGGTKLEIKR
EC50 (human CD123 [1]): 2 nM
Kd (cynomolgus CD123): 4.7 nM
Kd (human CD123 [2]): 2.7 nM

B3: h7G3EC-SGD-1910 (antibody, human IgG1, kappa, V domains shown)
VH: QVQLVQSGAEVKKPGASVKMSCKASGYTFTDYYMKWVKQAPGQGLEWIGDIIPSNGATFYNQKFKGKATLTVDRSISTAYMHLNRLRSDDTAVYYCTRSHLLRASWFAYWGQGTLVTVSS
VL: DFVMTQSPDSLAVSLGERATINCKSSQSLLNSGNQKNYLTWYLQKPGQPPKLLIYWASTRESGVPDRFSGSGSGTDFTLTISSLQAEDVAVYYCQNDYSYPYTFGQGTKLEIKR
modifications: SGD-1910 PBD drug-linker on the thiol of Cys 239 (EU index); average drug load about 2 per antibody
mean IC50, in vitro cytotoxicity, responsive CD123-positive AML cell lines (human CD123 [3]): 7 ng/mL
mean IC50, in vitro cytotoxicity, responsive primary AML samples (human CD123 [3]): 1 ng/mL
IC50, in vitro cytotoxicity (CelltiterGlo, 96 h), GDM-1 AML cells (human CD123 [4]): 3.5 ng/mL
IC50, in vitro cytotoxicity (CelltiterGlo, 96 h), HNT-34 AML cells (human CD123 [4]): 0.35 ng/mL
IC50, in vitro cytotoxicity (CelltiterGlo, 96 h), KG1-INV AML cells (human CD123 [4]): 0.6 ng/mL
IC50, in vitro cytotoxicity (CelltiterGlo, 96 h), KG-1 AML cells (human CD123 [4]): 0.8 ng/mL
IC50, in vitro cytotoxicity (CelltiterGlo, 96 h), Kasumi-1 AML cells (human CD123 [4]): 1 ng/mL
IC50, in vitro cytotoxicity (CelltiterGlo, 96 h), MV4-11 AML cells (human CD123 [4]): 0.02 ng/mL
IC50, in vitro cytotoxicity (CelltiterGlo, 96 h), Molm-13 AML cells (human CD123 [4]): 0.08 ng/mL
IC50, in vitro cytotoxicity (CelltiterGlo, 96 h), NOMO-1 AML cells (human CD123 [4]): 38 ng/mL
IC50, in vitro cytotoxicity (CelltiterGlo, 96 h), SKM-1 AML cells (human CD123 [4]): 2.5 ng/mL
IC50, in vitro cytotoxicity (CelltiterGlo, 96 h), TF1a AML cells (human CD123 [4]): > 1000 ng/mL
IC50, in vitro cytotoxicity (CelltiterGlo, 96 h), THP-1 AML cells (human CD123 [4]): 24 ng/mL
IC50, in vitro cytotoxicity (Annexin V/PI flow cytometry), primary AML sample FH016 (human CD123 [5]): 1.4 ng/mL
IC50, in vitro cytotoxicity (Annexin V/PI flow cytometry), primary AML sample FH018 (human CD123 [5]): 0.12 ng/mL
IC50, in vitro cytotoxicity (Annexin V/PI flow cytometry), primary AML sample FH019 (human CD123 [5]): > 2.5 ng/mL
IC50, in vitro cytotoxicity (Annexin V/PI flow cytometry), primary AML sample FH020 (human CD123 [5]): 2.5 ng/mL
IC50, in vitro cytotoxicity (Annexin V/PI flow cytometry), primary AML sample FH021 (human CD123 [5]): 1.6 ng/mL
IC50, in vitro cytotoxicity (Annexin V/PI flow cytometry), primary AML sample FH022 (human CD123 [5]): 0.56 ng/mL
IC50, in vitro cytotoxicity (Annexin V/PI flow cytometry), primary AML sample FH023 (human CD123 [5]): 0.06 ng/mL
IC50, in vitro cytotoxicity (Annexin V/PI flow cytometry), primary AML sample FH024 (human CD123 [5]): 2 ng/mL
IC50, in vitro cytotoxicity (Annexin V/PI flow cytometry), primary AML sample FH025 (human CD123 [5]): 6.5 ng/mL
IC50, in vitro cytotoxicity (Annexin V/PI flow cytometry), primary AML sample FH026 (human CD123 [5]): 0.22 ng/mL
IC50, in vitro cytotoxicity (Annexin V/PI flow cytometry), primary AML sample FH027 (human CD123 [5]): > 2.5 ng/mL
IC50, in vitro cytotoxicity (Annexin V/PI flow cytometry), primary AML sample FH028 (human CD123 [5]): 2 ng/mL
IC50, in vitro cytotoxicity (Annexin V/PI flow cytometry), primary AML sample FH029 (human CD123 [5]): 0.46 ng/mL
IC50, in vitro cytotoxicity (Annexin V/PI flow cytometry), primary AML sample FH034 (human CD123 [5]): 0.22 ng/mL
IC50, in vitro cytotoxicity (Annexin V/PI flow cytometry), primary AML sample FH036 (human CD123 [5]): 0.16 ng/mL
IC50, in vitro cytotoxicity (Annexin V/PI flow cytometry), primary AML sample FH037 (human CD123 [5]): 0.68 ng/mL
IC50, in vitro cytotoxicity (Annexin V/PI flow cytometry), primary AML sample FH038 (human CD123 [5]): 0.18 ng/mL

B4: h7G3EC (antibody, human IgG1, kappa, V domains shown)
VH: QVQLVQSGAEVKKPGASVKMSCKASGYTFTDYYMKWVKQAPGQGLEWIGDIIPSNGATFYNQKFKGKATLTVDRSISTAYMHLNRLRSDDTAVYYCTRSHLLRASWFAYWGQGTLVTVSS
VL: DFVMTQSPDSLAVSLGERATINCKSSQSLLNSGNQKNYLTWYLQKPGQPPKLLIYWASTRESGVPDRFSGSGSGTDFTLTISSLQAEDVAVYYCQNDYSYPYTFGQGTKLEIKR
notes: EC means cysteine at position 239 (EU index) of the IgG1 heavy chain; Unconjugated antibody; also called humanized 7G3 with S239C
Kd (cynomolgus CD123): 6.6 nM
Kd (human CD123 [2]): 2.7 nM

B5: h7G3, G1 (antibody, V domains shown)
VH: QVQLVQSGAEVKKPGASVKMSCKASGYTFTDYYMKWVKQAPGQGLEWIGDIIPSNGATFYNQKFKGKATLTVDRSISTAYMHLNRLRSDDTAVYYCTRSHLLRASWFAYWGQGTLVTVSS
VL: DFVMTQSPDSLAVSLGERATINCKSSQSLLNSGNQKNYLTWYLQKPGQPPKLLIYWASTRESGVPDRFSGSGSGTDFTLTISSLQAEDVAVYYCQNDYSYPYTFGQGTKLEIKR
notes: also called humanized 7G3, IgG1
Kd (cynomolgus CD123): 5.3 nM
Kd (human CD123 [2]): 2.7 nM

B6: HCLA (antibody, V domains shown)
VH: QVQLVQSGAEVKKPGASVKMSCKASGYTFTDYYMKWVKQAPGQGLEWIGDIIPSNGATFYNQKFKGKATLTVDRSISTAYMHLNRLRSDDTAVYYCTRSHLLRASWFAYWGQGTLVTVSS
VL: DFVMTQSPDSLAVSLGERATINCKSSQSLLNSGNQKNYLTWYLQKPGQPPKLLIYWASTRESGVPDRFSGSGSGTDFTLTISSLQAEDVAVYYCQNDYSYPYTFGQGTKLEIKR
notes: also called lead humanized 7G3 antibody; vHC/vLA
EC50 (human CD123 [1]): 2.6 nM

From patent publication US20180169261A1 (Seagen, published 2018)
